Data as given in the supplement of paper PMC9112550, “Optimization of the antimicrobial peptide Bac7 by deep mutational scanning” (BMC Biology, 2022).

Tested on: Escherichia coli TOP10
Test: shrunken log2 fold change of peptide-encoding DNA abundance (4.5 h post-induction vs induction); higher = less antimicrobial activity (less host growth inhibition)
Settings: time post-induction: 4.5 h; library: site-saturation at positions 5, 18, 19, 20
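Also: peptides expressed intracellularly from a pBAD plasmid library in pooled LB shake-flask culture, induced with 0.3% L-arabinose, DNA abundance read by NGS, three biological replicates, DESeq2 with apeglm shrinkage.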

| Sequence | shrunken log2 fold change |
| --- | --- |
| RRIRTRPPRLPRPRPRPHQPPRP | -0.0196 |
| RRIRFRPPRLPRPRPRPEVCPRP | 0.00109 |
| RRIRTRPPRLPRPRPRPLRPPRP | 0.864 |
| RRIRDRPPRLPRPRPRPYRYPRP | -0.0188 |
| RRIRHRPPRLPRPRPRPDDIPRP | -0.0131 |
| RRIRDRPPRLPRPRPRPGFGPRP | 0.264 |
| RRIRSRPPRLPRPRPRPEGIPRP | 0.0592 |
| RRIRARPPRLPRPRPRPTCIPRP | 0.331 |
| RRIRYRPPRLPRPRPRPPDNPRP | -0.185 |
| RRIRWRPPRLPRPRPRPFCCPRP | -0.163 |
| RRIRERPPRLPRPRPRPTRVPRP | -0.0943 |
| RRIRDRPPRLPRPRPRPKLGPRP | -0.000429 |
| RRIRSRPPRLPRPRPRPVLVPRP | 0.242 |
| RRIRIRPPRLPRPRPRPLNYPRP | -0.384 |
| RRIRGRPPRLPRPRPRPLVNPRP | 0.4 |
| RRIRWRPPRLPRPRPRPQCSPRP | 0.221 |
| RRIRGRPPRLPRPRPRPIAGPRP | 0.701 |
| RRIRSRPPRLPRPRPRPCCNPRP | -0.0171 |
| RRIRQRPPRLPRPRPRPVNAPRP | 0.00432 |
| RRIRMRPPRLPRPRPRPYHMPRP | -0.000687 |
| RRIRERPPRLPRPRPRPGSVPRP | 0.00838 |
| RRIRFRPPRLPRPRPRPCGAPRP | 0.0828 |
| RRIRARPPRLPRPRPRPRSGPRP | 0.537 |
| RRIRRRPPRLPRPRPRPMTNPRP | -0.00301 |
| RRIRARPPRLPRPRPRPNVQPRP | 0.109 |

| Sequence | shrunken log2 fold change |
| --- | --- |
| RRIRIRPPRLPRPRPRPQKDPRP | -0.421 |
| RRIRFRPPRLPRPRPRPFPDPRP | -0.137 |
| RRIRPRPPRLPRPRPRPDNGPRP | -0.332 |
| RRIRDRPPRLPRPRPRPHSFPRP | 0.0961 |
| RRIRFRPPRLPRPRPRPSAQPRP | 0.24 |
| RRIRRRPPRLPRPRPRPCGNPRP | 0.0466 |
| RRIRVRPPRLPRPRPRPNRCPRP | -0.364 |
| RRIRKRPPRLPRPRPRPNTCPRP | 0.0343 |
| RRIRVRPPRLPRPRPRPAAIPRP | -0.0826 |
| RRIRHRPPRLPRPRPRPTRHPRP | 0.36 |
| RRIRHRPPRLPRPRPRPMYNPRP | -0.833 |
| RRIRMRPPRLPRPRPRPLVLPRP | 0.141 |
| RRIRLRPPRLPRPRPRPFYTPRP | -0.338 |
| RRIRTRPPRLPRPRPRPSEIPRP | -0.242 |
| RRIRKRPPRLPRPRPRPPQMPRP | 0.278 |
| RRIRRRPPRLPRPRPRPHMEPRP | 0.0679 |
| RRIRTRPPRLPRPRPRPDMTPRP | -0.0206 |
| RRIRCRPPRLPRPRPRPVGEPRP | 0.0624 |
| RRIRVRPPRLPRPRPRPWPEPRP | 0.465 |
| RRIRWRPPRLPRPRPRPYFYPRP | -0.679 |
| RRIRKRPPRLPRPRPRPTCRPRP | 0.289 |
| RRIRFRPPRLPRPRPRPSKLPRP | -0.42 |
| RRIRVRPPRLPRPRPRPEMLPRP | 0.0987 |
| RRIRMRPPRLPRPRPRPQLVPRP | 0.00959 |
| RRIRSRPPRLPRPRPRPINPPRP | -0.447 |

| Sequence | shrunken log2 fold change |
| --- | --- |
| RRIRCRPPRLPRPRPRPQTWPRP | 0.295 |
| RRIRKRPPRLPRPRPRPEMFPRP | 0.0732 |
| RRIRGRPPRLPRPRPRPIKRPRP | 0.171 |
| RRIRQRPPRLPRPRPRPLTVPRP | 0.0325 |
| RRIRKRPPRLPRPRPRPAWHPRP | 0.378 |
| RRIRFRPPRLPRPRPRPVWEPRP | 0.00583 |
| RRIRPRPPRLPRPRPRPWDVPRP | 0.308 |
| RRIRNRPPRLPRPRPRPAEIPRP | -0.107 |
| RRIRRRPPRLPRPRPRPQKEPRP | 0.00366 |
| RRIRHRPPRLPRPRPRPKVCPRP | -0.19 |
| RRIRDRPPRLPRPRPRPCLTPRP | 0.0157 |
| RRIRNRPPRLPRPRPRPKFHPRP | -0.078 |
| RRIRGRPPRLPRPRPRPDLLPRP | 1.51 |
| RRIRSRPPRLPRPRPRPQIGPRP | -1.62 |
| RRIRCRPPRLPRPRPRPQVNPRP | -0.246 |
| RRIRNRPPRLPRPRPRPSAMPRP | -0.188 |
| RRIRDRPPRLPRPRPRPGAAPRP | 1.09 |
| RRIRCRPPRLPRPRPRPILLPRP | -1.03 |
| RRIRIRPPRLPRPRPRPAQCPRP | 0.211 |
| RRIRGRPPRLPRPRPRPKDQPRP | 0.843 |
| RRIRTRPPRLPRPRPRPMWKPRP | 0.00922 |
| RRIRVRPPRLPRPRPRPCINPRP | 0.0189 |
| RRIRIRPPRLPRPRPRPLEHPRP | -0.105 |
| RRIRLRPPRLPRPRPRPQLEPRP | -0.0629 |
| RRIRKRPPRLPRPRPRPGMQPRP | -0.00459 |

| Sequence | shrunken log2 fold change |
| --- | --- |
| RRIRERPPRLPRPRPRPTLEPRP | 0.034 |
| RRIRRRPPRLPRPRPRPRDIPRP | 0.0666 |
| RRIRFRPPRLPRPRPRPAKYPRP | -0.381 |
| RRIRHRPPRLPRPRPRPVLGPRP | 0.463 |
| RRIRDRPPRLPRPRPRPQPIPRP | 0.152 |
| RRIRGRPPRLPRPRPRPLHIPRP | 0.105 |
| RRIRQRPPRLPRPRPRPNCNPRP | -0.882 |
| RRIRFRPPRLPRPRPRPYHNPRP | -0.882 |
| RRIRFRPPRLPRPRPRPMVAPRP | 0.297 |
| RRIRPRPPRLPRPRPRPALLPRP | 0.0603 |
| RRIRNRPPRLPRPRPRPALQPRP | 0.234 |
| RRIRFRPPRLPRPRPRPPWGPRP | 0.399 |
| RRIRWRPPRLPRPRPRPQGNPRP | -1.12 |
| RRIRSRPPRLPRPRPRPMYHPRP | -0.762 |
| RRIRVRPPRLPRPRPRPGDNPRP | 0.174 |
| RRIRFRPPRLPRPRPRPHIIPRP | -0.879 |
| RRIRSRPPRLPRPRPRPTESPRP | 0.0325 |
| RRIRYRPPRLPRPRPRPAESPRP | -0.00136 |
| RRIRSRPPRLPRPRPRPTWNPRP | -0.0149 |
| RRIRERPPRLPRPRPRPVCLPRP | -0.0994 |
| RRIRGRPPRLPRPRPRPNSNPRP | 0.0841 |
| RRIRRRPPRLPRPRPRPLCHPRP | 0.182 |
| RRIRQRPPRLPRPRPRPREVPRP | 4.11 |
| RRIRKRPPRLPRPRPRPTGWPRP | 1.44 |
| RRIRVRPPRLPRPRPRPYSLPRP | -0.533 |

| Sequence | shrunken log2 fold change |
| --- | --- |
| RRIRPRPPRLPRPRPRPTGCPRP | 0.0367 |
| RRIRARPPRLPRPRPRPGRPPRP | 0.801 |
| RRIRVRPPRLPRPRPRPDFGPRP | -0.0183 |
| RRIRERPPRLPRPRPRPTPIPRP | 0.244 |
| RRIRWRPPRLPRPRPRPCYGPRP | 0.22 |
| RRIRMRPPRLPRPRPRPGELPRP | -0.0122 |
| RRIRSRPPRLPRPRPRPKKDPRP | 0.104 |
| RRIRTRPPRLPRPRPRPIGYPRP | -0.0183 |
| RRIRLRPPRLPRPRPRPELHPRP | 0.327 |
| RRIRYRPPRLPRPRPRPVPWPRP | 0.277 |
| RRIRGRPPRLPRPRPRPHIRPRP | 0.0682 |
| RRIRWRPPRLPRPRPRPYWMPRP | -0.265 |
| RRIRYRPPRLPRPRPRPFPDPRP | -0.164 |
| RRIRERPPRLPRPRPRPVLLPRP | -0.388 |
| RRIRYRPPRLPRPRPRPKYYPRP | -1.43 |
| RRIRARPPRLPRPRPRPAFDPRP | 1 |
| RRIRGRPPRLPRPRPRPGLNPRP | 4.08 |
| RRIRGRPPRLPRPRPRPLMVPRP | 0.885 |
| RRIRERPPRLPRPRPRPNRHPRP | -0.516 |
| RRIRSRPPRLPRPRPRPLTVPRP | -0.216 |
| RRIRIRPPRLPRPRPRPSWKPRP | -0.242 |
| RRIRNRPPRLPRPRPRPKHEPRP | 0.13 |
| RRIRDRPPRLPRPRPRPKVTPRP | -0.0277 |
| RRIRDRPPRLPRPRPRPHEYPRP | -0.01 |
| RRIRDRPPRLPRPRPRPFYSPRP | -0.304 |

| Sequence | shrunken log2 fold change |
| --- | --- |
| RRIRVRPPRLPRPRPRPVFQPRP | -0.092 |
| RRIRHRPPRLPRPRPRPQYKPRP | -0.252 |
| RRIRHRPPRLPRPRPRPGPEPRP | 1.6 |
| RRIRIRPPRLPRPRPRPLNMPRP | -0.528 |
| RRIRCRPPRLPRPRPRPFFKPRP | -0.197 |
| RRIRARPPRLPRPRPRPSFVPRP | 0.0934 |
| RRIRNRPPRLPRPRPRPVIMPRP | 0.178 |
| RRIRPRPPRLPRPRPRPMNPPRP | 0.00824 |
| RRIRFRPPRLPRPRPRPGQYPRP | -0.0815 |
| RRIRNRPPRLPRPRPRPYSFPRP | -1.01 |
| RRIRTRPPRLPRPRPRPVNHPRP | -0.0862 |
| RRIRKRPPRLPRPRPRPEYTPRP | 0.0243 |
| RRIRYRPPRLPRPRPRPLFKPRP | -0.646 |
| RRIRYRPPRLPRPRPRPYFHPRP | -1.4 |
| RRIRLRPPRLPRPRPRPCRPPRP | -0.0863 |
| RRIRRRPPRLPRPRPRPRQLPRP | 0.394 |
| RRIRRRPPRLPRPRPRPCILPRP | -0.208 |
| RRIRFRPPRLPRPRPRPWMNPRP | -0.708 |
| RRIRNRPPRLPRPRPRPWWDPRP | -0.00674 |
| RRIRPRPPRLPRPRPRPVSHPRP | 0.208 |
| RRIRTRPPRLPRPRPRPEKHPRP | 0.0385 |
| RRIRIRPPRLPRPRPRPEIWPRP | -0.18 |
| RRIRVRPPRLPRPRPRPPIGPRP | 0.174 |
| RRIRLRPPRLPRPRPRPTNIPRP | -0.421 |
| RRIRYRPPRLPRPRPRPLRWPRP | 0.184 |
